Target: M3R-YFP (muscarinic acetylcholine receptor M3 with YFP fused C-terminally) (UniProt P20309)
Assay: FRET or BRET; single-cell FRET in HEK293T cells transfected with M3R-YFP, Gαq, Gβ1 and mTurquoise2-Gγ2; laminar superfusion with buffer (137 mM NaCl, 5.4 mM KCl, 2 mM CaCl2, 1 mM MgCl2, 10 mM HEPES, pH 7.3) or agonist (ACh 30 µM, Metha, Fur, Are, Guva, Pilo, Mda one after the other in the same cell); amplitudes normalized to ACh; room temperature

UniProt P20309, sequence (P20309 whole entry, the tested form may be a part): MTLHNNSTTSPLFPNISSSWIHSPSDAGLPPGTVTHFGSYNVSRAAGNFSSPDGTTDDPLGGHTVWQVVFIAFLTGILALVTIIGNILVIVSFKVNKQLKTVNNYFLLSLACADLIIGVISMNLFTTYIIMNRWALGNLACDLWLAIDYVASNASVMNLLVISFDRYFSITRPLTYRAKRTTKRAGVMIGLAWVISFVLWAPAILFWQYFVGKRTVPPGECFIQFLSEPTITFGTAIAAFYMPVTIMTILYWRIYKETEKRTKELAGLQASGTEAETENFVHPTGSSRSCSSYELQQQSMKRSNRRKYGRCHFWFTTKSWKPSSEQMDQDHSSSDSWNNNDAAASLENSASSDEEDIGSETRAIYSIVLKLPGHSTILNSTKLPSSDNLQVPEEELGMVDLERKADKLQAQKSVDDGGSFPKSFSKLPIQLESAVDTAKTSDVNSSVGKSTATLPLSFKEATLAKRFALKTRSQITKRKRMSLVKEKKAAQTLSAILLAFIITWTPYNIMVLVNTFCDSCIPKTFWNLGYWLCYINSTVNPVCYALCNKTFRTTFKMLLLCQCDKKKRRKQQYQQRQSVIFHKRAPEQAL

Gq protein (Gαq, Gβ1 and mTurquoise2-Gγ2) (from UniProt P50148 1-359; P62873 1-340; P59768 1-71) (complex; other documents disagree on this pair)
FRET amplitude with Are as agonist, relative to ACh (% of the ACh signal): 20 | FRET amplitude with Fur as agonist, relative to ACh (% of the ACh signal): 60 | FRET amplitude with Guva as agonist, relative to ACh (% of the ACh signal): 20 | FRET amplitude with Mda as agonist, relative to ACh (% of the ACh signal): 8 | FRET amplitude with Metha as agonist, relative to ACh (% of the ACh signal): 60 | FRET amplitude with Pilo as agonist, relative to ACh (% of the ACh signal): 8

Source: paper PMC8635974
